In the supplement of paper PMC9732359:
± gives the uncertainty stated by the source.

Experiment: protein stability index of a GFP-peptide fusion (yeast GPS) (PSI 1-4); higher = more stable; sorted into four equal gates, so the index is relative within each strain
Summary of the method: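 Tiled 17-residue peptides from yeast proteins were fused downstream of GFP on a plasmid that also expresses Cherry, and the pooled library was carried in yeast. Mid-log cultures grown in leucine-free medium were sorted into four equal gates by GFP/Cherry fluorescence ratio. Plasmids from each gate were PCR-amplified and Illumina-sequenced, and reads were assigned to strains by barcodes. Each peptide's protein stability index is the sum, over gates, of the gate's read frequency multiplied by its gate number.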

Sequence | protein stability index (doa10∆) | protein stability index (pdr5∆) | protein stability index (san1∆) | protein stability index (ubr1∆)
VLVYDDKLEKVTHDCYR [RPC34] | 2.57 ± 0.1 | 3.18 ± 0.053 | 2.94 ± 0.069 | 2.96 ± 0.062
VMESGAKGCEVVVSGKL [RPS3] | 3.04 ± 0.23 | – | 3 ± 0.24 | –
VMNTKLLQEGGSLSGNS [ESC2] | 3.27 ± 0.14 | 3.44 ± 0.14 | 3.13 ± 0.099 | 3.07 ± 0.19
VNADDDDFMHSETREKE [RPB4] | 2.7 ± 0.089 | 2.61 ± 0.06 | 2.35 ± 0.089 | 1.99 ± 0.062
VNADTVGKTVKQLIMES [NSL1] | 3.22 ± 0.077 | 3.13 ± 0.055 | 2.94 ± 0.058 | 3.33 ± 0.05
VNAMRVLYYRDARSSRN [PRE4] | – | 3.16 ± 0.23 | 2.57 ± 0.26 | –
VNDRSDISDSEGGLFEC [PCI8] | 3.38 ± 0.2 | 3.11 ± 0.12 | 3.45 ± 0.071 | 3.08 ± 0.11
VNDTVKIDLASGKITDF [RPS4A] | 3.07 ± 0.12 | 3.17 ± 0.1 | 3.26 ± 0.12 | 2.71 ± 0.15
VNGFLNLGYCNDKLIVD [RPN1] | 3.32 ± 0.098 | 2.78 ± 0.067 | 2.89 ± 0.052 | 2.49 ± 0.079
VNITKFSKFERSKSSHK [SKI6] | 2.73 ± 0.095 | 2.65 ± 0.059 | 2.76 ± 0.064 | 2.62 ± 0.048
VNTEKKTIEVTAEINCF [RPN3] | – | 1.35 ± 0.11 | 1.78 ± 0.21 | 1.62 ± 0.16
VNTTRRFQYSDDEPAEK [YMR129W/POM152] | 2.87 ± 0.22 | 3.17 ± 0.17 | 2.86 ± 0.19 | 2.95 ± 0.19
VNVLLQSYFSQLKFEGF [BRR2] | 1.22 ± 0.048 | 1.51 ± 0.046 | 1.28 ± 0.074 | 1.48 ± 0.033
VPAVVDDPLENMFGDYS [SNF6] | 3.09 ± 0.14 | 3.48 ± 0.12 | 2.85 ± 0.17 | 3.35 ± 0.11
VPQGKIVALTNAKDKER [SMC3] | 2.77 ± 0.1 | 2.84 ± 0.14 | 2.83 ± 0.15 | 3.02 ± 0.092
VPQSEETRAELSQLCAV [RPO21] | 2.37 ± 0.067 | 3.02 ± 0.065 | 2.79 ± 0.067 | 3.09 ± 0.061
VQDIIGNGKLSEHFLYL [RPN1] | – | – | 3.29 ± 0.26 | –
VQLLSKSHNAHVRCGTA [RPN2] | 1.44 ± 0.071 | 1.5 ± 0.042 | 1.57 ± 0.08 | 1.72 ± 0.048
VQQFAQLPVGFKNMGNT [UBP6] | 2.03 ± 0.1 | 1.74 ± 0.076 | 1.44 ± 0.15 | 1.92 ± 0.06
VQVGPMKVFVTKHLMPQ [RPB7] | 2.54 ± 0.047 | 2.37 ± 0.041 | 2.14 ± 0.062 | 2.52 ± 0.042
VQYKLLSISVPSDVNID [SNU114] | 1.98 ± 0.076 | 2.5 ± 0.069 | 2.1 ± 0.074 | 2.44 ± 0.069
VREFQRRLAFLGIKVAE [BRR2] | 2.06 ± 0.12 | 1.17 ± 0.14 | 1.04 ± 0.23 | 1.17 ± 0.087
VRIYSGLLKRGDTVRIL [SNU114] | – | 2.92 ± 0.17 | 2.66 ± 0.17 | 3.02 ± 0.1
VRMLASPMLYKVPDISS [BRR2] | 2.28 ± 0.073 | 2.77 ± 0.078 | 1.96 ± 0.1 | 2.28 ± 0.051
VRNLQGIQEVVHNTNSF [NUT1] | 2.98 ± 0.079 | 3.15 ± 0.068 | 2.94 ± 0.063 | 3.17 ± 0.063
VRNTAPNIRELGVKNLG [YCG1] | 2.88 ± 0.2 | 3.29 ± 0.22 | – | 2.98 ± 0.13
VRNYKPLINRLKHYNGY [SWI1] | 1.79 ± 0.048 | 2.2 ± 0.045 | 2.57 ± 0.06 | 2.54 ± 0.039

Sequence | protein stability index (doa10∆) | protein stability index (pdr5∆) | protein stability index (san1∆) | protein stability index (ubr1∆)
VRRLEAQRNALNDKVRF [RPT6] | 2.63 ± 0.1 | 2.96 ± 0.089 | 2.77 ± 0.13 | 2.7 ± 0.045
VRSAEYYAKKRAFTKKV [RPL16B] | 2.66 ± 0.1 | 2.18 ± 0.066 | 2.61 ± 0.091 | 3.1 ± 0.063
VRSLPKEEQPKQIIVTR [PRP8] | 2.38 ± 0.1 | 2.09 ± 0.25 | 2.21 ± 0.12 | 1.98 ± 0.072
VRSREDRKNRAPPQRPR [RPS26A] | 3.27 ± 0.26 | – | 2.76 ± 0.12 | –
VRWIETQDVFLKDFNTE [FAS2] | 3.227 ± 0.03 | 3.065 ± 0.026 | 3.014 ± 0.025 | 3.154 ± 0.021
VSEDLLDERGHEKIEDE [RPN4] | 3.36 ± 0.1 | 3.53 ± 0.15 | 3.71 ± 0.08 | 3.45 ± 0.11
VSFNGFKLPKKFPPPTP [BRR2] | 2.57 ± 0.07 | 2.9 ± 0.067 | 2.8 ± 0.06 | 2.93 ± 0.052
VSGNNASDEPSRKKNRR [SSN3] | 2.67 ± 0.1 | 3.01 ± 0.11 | 2.78 ± 0.14 | 2.91 ± 0.096
VSKKWAAAGVCEKWAAS [RPL14B] | 2.64 ± 0.077 | 3.1 ± 0.14 | 2.73 ± 0.084 | 2.51 ± 0.066
VSKPSLLHETNDSFKGL [PRP8] | – | 2.74 ± 0.13 | – | 2.99 ± 0.097
VSMKANKYQIKKAVKEL [RPL25] | 1.18 ± 0.065 | 1.52 ± 0.07 | 2.98 ± 0.056 | 2.97 ± 0.071
VSNIEGILDEIMFNHAR [RGR1] | 2.77 ± 0.054 | 2.53 ± 0.053 | 2.46 ± 0.065 | 2.99 ± 0.031
VSNNVLRRLEILVPDLY [ECM29] | 2.31 ± 0.1 | 1.84 ± 0.083 | 1.56 ± 0.11 | 1.65 ± 0.073
VSSLPGSTDKSLDFLNQ [COR1] | 3.45 ± 0.18 | – | 3.02 ± 0.28 | –
VTFSPTGRLFQVEYALE [PRE5] | 3.28 ± 0.099 | 2.77 ± 0.12 | 2.93 ± 0.23 | 2.79 ± 0.062
VTKETVHPRKSYKMNSS [PRP8] | 3.03 ± 0.11 | 3.02 ± 0.086 | 2.96 ± 0.048 | 2.9 ± 0.065
VTLFQMAILLLYNDADV [CDC53] | 2.03 ± 0.057 | 1.79 ± 0.051 | 1.67 ± 0.099 | 1.96 ± 0.041
VTNDLDTSAEKDQIQAG [SIR4] | 3.32 ± 0.12 | 3.36 ± 0.12 | 3.28 ± 0.11 | 3.21 ± 0.073
VTRTQQWSMVAQRLQIS [SWI1] | 2.05 ± 0.051 | 1.89 ± 0.049 | 2.27 ± 0.07 | 2.06 ± 0.04
VTSEKYPFDKLESWWLV [BRR2] | 2.42 ± 0.29 | 2.91 ± 0.19 | 2.79 ± 0.12 | 3.3 ± 0.087
VTSMEAAREKKIRELEA [YIL149C/MLP2] | 2.97 ± 0.072 | 2.9 ± 0.1 | 2.92 ± 0.07 | 2.86 ± 0.063
VTYTEHAKRKTVTSLDV [HHF1] | 3.25 ± 0.23 | – | – | 2.68 ± 0.095
VVDANGCVNSLISGPRN [YMR129W/POM152] | 2.86 ± 0.15 | 2.69 ± 0.12 | 2.97 ± 0.13 | 2.66 ± 0.081
VVDQLWSEISNELPDIE [RPN2] | 2.38 ± 0.12 | 2.94 ± 0.1 | 2.75 ± 0.12 | 2.69 ± 0.046
VVEGVTFVVEQLIKQSI [SNU114] | 2.52 ± 0.076 | 2.6 ± 0.095 | 3.44 ± 0.098 | 2.85 ± 0.067
VVEISNGNTSSKTVVTL [FAS1] | 3.11 ± 0.06 | 3.18 ± 0.05 | 3.28 ± 0.072 | 3.26 ± 0.06
VVESVGAEVDEARINEL [RPP2B] | 3.23 ± 0.11 | 3.21 ± 0.091 | 3.35 ± 0.095 | 3.47 ± 0.15

Sequence | protein stability index (doa10∆) | protein stability index (pdr5∆) | protein stability index (san1∆) | protein stability index (ubr1∆)
VVGTETRVNAQLESYEY [RRI1] | 2.72 ± 0.18 | 1.65 ± 0.11 | 3.33 ± 0.1 | 2.26 ± 0.1
VVLFNRQPSLHRLSILS [RPO31] | 1.65 ± 0.054 | 1.88 ± 0.053 | 1.44 ± 0.096 | 1.63 ± 0.047
VVLRLYLKDNITLLTRQ [GRR1] | 1.88 ± 0.057 | 1.75 ± 0.084 | 1.34 ± 0.11 | 1.98 ± 0.067
VVLSFSGLNADSRILIE [PRE6] | 2.87 ± 0.15 | 3.26 ± 0.2 | 3.19 ± 0.072 | 3.3 ± 0.13
VVNITHHELVPKHIRLS [RPB5] | 2.52 ± 0.065 | 2.89 ± 0.062 | 3.01 ± 0.064 | 3.01 ± 0.056
VVRIKGINKIPPKPRKV [RPL7A] | 1.94 ± 0.043 | 2.21 ± 0.055 | 2.57 ± 0.063 | 2.44 ± 0.047
VVSILEAGDSDILTTLA [RPL30] | 3.12 ± 0.059 | 2.92 ± 0.074 | 3.01 ± 0.068 | 3.03 ± 0.061
VVVIDGKGHLVGRLASV [RPL16A] | 1.66 ± 0.065 | 1.64 ± 0.054 | 1.71 ± 0.1 | 1.97 ± 0.052
VVVVLEEPSASIMVELK [SIR3] | 2.95 ± 0.083 | 2.99 ± 0.16 | 3.28 ± 0.065 | 2.86 ± 0.2
VWFSHPRRYGKGSRQCR [RPS29A] | 3.14 ± 0.16 | 3.24 ± 0.1 | 3.39 ± 0.067 | 3.31 ± 0.11
VWNYTFMGTAFNQEGDY [PRP8] | – | 3.09 ± 0.19 | 2.73 ± 0.28 | –
WASKYGQEYPRIIGLSA [BRR2] | 1.47 ± 0.073 | 2.32 ± 0.089 | 1.87 ± 0.085 | 1.93 ± 0.052
WESLAKKQNLSSHQRVF [SWP82] | 2.77 ± 0.063 | 2.71 ± 0.071 | 2.83 ± 0.06 | 2.91 ± 0.053
WIKNEQERQRQIQKNGP [PRP8] | 2.75 ± 0.092 | 3.09 ± 0.11 | 2.85 ± 0.14 | 2.84 ± 0.094
WIRLRTNNTIRYNAKRR [RPL39] | 2.88 ± 0.12 | 2.65 ± 0.083 | 2.93 ± 0.1 | 2.72 ± 0.066
WKEVMFDPSKDVLINEL [CDC53] | 2.41 ± 0.074 | 1.87 ± 0.052 | 1.8 ± 0.12 | 1.91 ± 0.073
WMLSICVEWRLPEIAKE [YJR042W/NUP85] | 1.2 ± 0.08 | 1.37 ± 0.05 | 1.51 ± 0.11 | 1.67 ± 0.061
WNRADNHFKDTYGFSIL [FAS1] | 3.07 ± 0.12 | 2.57 ± 0.069 | 3.35 ± 0.083 | 3.27 ± 0.092
WQIEEAGNSQITSGGFL [SRB5] | 2.98 ± 0.2 | 3.13 ± 0.17 | 3.07 ± 0.25 | 3.23 ± 0.14
WQYYYYTLTEEGVEYLR [RPS10A] | 2.58 ± 0.084 | 2.66 ± 0.072 | 2.74 ± 0.098 | 3.21 ± 0.1
WRAIIKAIFPNTVDGDL [FAS1] | 2.58 ± 0.13 | 2.75 ± 0.15 | 2.6 ± 0.094 | –
WRILKEDYAIVTKGGTV [PRP28] | 3.47 ± 0.27 | 3.2 ± 0.29 | 3.26 ± 0.11 | 3.41 ± 0.17
WSEITESMSYLPDPILK [MCD1] | – | 2.97 ± 0.18 | 2.92 ± 0.23 | 2.64 ± 0.1
WSKESNYDCKVISIVGG [PRP28] | 3.06 ± 0.11 | 3.06 ± 0.11 | 2.31 ± 0.097 | 2.74 ± 0.094
WSKTIKARTNLHQHVVL [RPC34] | 2.11 ± 0.1 | 1.8 ± 0.1 | 1.71 ± 0.21 | 2.34 ± 0.064
